The target in assay [1] is Photobacterium profundum α-carbonic anhydrase (Photobacterium profundum SS9). The assay can be described thus: SEC; Hiprep 16/60 Sephacryl S-200 equilibrated with 20 mM Tris pH 7.5 and 150 mM NaCl; dimer to monomers. In general terms: Size exclusion chromatography separates by hydrodynamic size, large species first.
For assay [2] the target is unchanged. Put plainly: non-reducing SDS-PAGE with protonography; purified PprCA in Laemmli loading buffer without 2-mercaptoethanol, 12% SDS gel, stained with Coomassie blue or by in-gel CO2 hydratase activity (bromothymol blue).

The stoichiometry N is a count of units in the complex or per binding partner. For the substance “Photobacterium profundum α-carbonic anhydrase (enzyme)”, the stoichiometry N in assay [1] and in assay [2] was 2 each time.

These data come from article PMC5148590.
